The test system of data set [1] is T1, CCCCCCCCCC(=O)Oc1ccc([N+](=O)[O-])cc1.
T1 construct: full-length lipC12 product (293 residues) from pTEV5lipC12, E. coli BL21(DE3); His-tag cut off with TEV protease, GASH left at N-terminus
In words: purified protein. Format: biochemical, uncultured bacterium. The conditions noted are these: apparent constant, free enzyme, 50 mM Tris-HCl pH 7.5, 1 mM CaCl2, 0.6% Triton X-100, 4% isopropanol, 1% acetonitrile, 25 °C, 95% confidence interval in parentheses.

The test system of data set [2] is T2, CCCCCCCCCC(=O)Oc1ccc([N+](=O)[O-])cc1.
T2 construct: full-length lipC12 product (293 residues) from pTEV5lipC12, E. coli BL21(DE3)
Nature of the data set: purified protein. Format: biochemical, uncultured bacterium. Particulars: apparent constant, free enzyme, 50 mM Tris-HCl pH 7.5, 1 mM CaCl2, 0.6% Triton X-100, 4% isopropanol, 1% acetonitrile, 25 °C, 95% confidence interval in parentheses.

A word on the kcat: it is the maximal rate divided by the concentration of active sites. As usually defined, the kcat/Km is the turnover number divided by the Michaelis constant. For cLipC12 (uncultured bacterium), in data set [1], the Km was 1.33 (1.17–1.51) mM, the kcat came out at 2.52 s⁻¹ and the kcat/Km was determined as 1900 M⁻¹ s⁻¹.

Consider HisTEVS-LipC12 (uncultured bacterium), for which, in data set [2], the Km is listed as 1.77 (1.56–2.02) mM, the turnover number (kcat) was 2.53 s⁻¹ and the kcat/Km worked out at 1430 M⁻¹ s⁻¹.

The record behind these values is publication PMC6030132, “Tailoring recombinant lipases: keeping the His-tag favors esterification reactions, removing it favors hydrolysis reactions” (Scientific Reports, 2018).
